Data: US20180188270A1, “DIAGNOSTIC TEST FOR ALZHEIMER'S DISEASE BASED ON IDENTIFICATION OF A PROTEOLYTIC PATHWAY” (Health Research, Inc., priority 2015, published 2018)

Tests used:
plasma mSRC = assay: Plasma SRC concentration in mice by ELISA; format: in vivo, mouse; details: FXII−/− mice, CCl4 0.5 g/kg or hPEPD 4 mg/kg i.p., 24 h
Procedure: Animal studies. All animal studies were performed in accordance with protocols approved by the Institutional Animal Care and Use Committee at Roswell Park Cancer Institute. Male mice at 7-8 weeks of age were used, including wild type (WT) mice (C57BL/6), and mice deficient in FXII (C57BL/6-FXII^−/−) or FVII (C57BL/6-FVII^tTA/tTA). WT C57BL/6 mice were purchased from Taconic. C57BL/6-FXII^−/− mice and C57BL/6-FVII^tTA/tTA mice were bred in our own facility and genotyped. The breeders were kindly provided by Dr. Francis J. Castellino at University of Notre Dame. […] CCl4 was dissolved in corn oil, whereas all other substances were dissolved in PBS. The vehicle or the test substance was given to mice in 0.1 ml volume per 20 g body weight. Blood was collected from the mice at specific times by cardiac puncture at the time of sacrifice by carbon dioxide, and heart, liver and kidney were also collected from some of the mice. […]
Measurement of plasma levels of PEPD, SRC, Aβ1-42 and FI. […] Upon adequate color development, 100 μl of stop solution (Cell Signaling, 7002) was added to each well, and absorbance at 450 nm was promptly recorded by a microtiter plate reader. Plasma FI concentration was determined using an assay kit (400-374-130050) from GenWay Biotech, following the manufacturer's instruction.

FVIIa = molecular target: T1, FVIIa (Homo sapiens, UniProt P08709); assay: In vitro degradation by FVIIa with or without TF; format: biochemical; details: for hPEPD remaining (enzymatic activity): 60 min
T1 construct: purchased Haematologic Technologies HCVIIA-0031 (FVIIa); RTF-0300 (TF)
T1 sequence (P08709 61-212 limits assumed): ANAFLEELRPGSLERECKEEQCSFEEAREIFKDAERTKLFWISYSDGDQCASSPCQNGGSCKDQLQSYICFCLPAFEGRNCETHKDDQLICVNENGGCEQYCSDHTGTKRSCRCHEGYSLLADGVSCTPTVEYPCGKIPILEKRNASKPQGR
T1 sequence (P08709 213-466 limits assumed): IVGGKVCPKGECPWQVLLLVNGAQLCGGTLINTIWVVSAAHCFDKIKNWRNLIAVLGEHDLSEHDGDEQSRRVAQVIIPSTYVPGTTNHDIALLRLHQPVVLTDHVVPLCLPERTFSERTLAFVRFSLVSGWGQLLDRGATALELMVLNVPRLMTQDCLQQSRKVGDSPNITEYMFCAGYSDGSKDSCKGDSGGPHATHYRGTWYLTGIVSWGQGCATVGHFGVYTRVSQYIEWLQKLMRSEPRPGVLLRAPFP
T1 sequence (P13726 33-295 partner): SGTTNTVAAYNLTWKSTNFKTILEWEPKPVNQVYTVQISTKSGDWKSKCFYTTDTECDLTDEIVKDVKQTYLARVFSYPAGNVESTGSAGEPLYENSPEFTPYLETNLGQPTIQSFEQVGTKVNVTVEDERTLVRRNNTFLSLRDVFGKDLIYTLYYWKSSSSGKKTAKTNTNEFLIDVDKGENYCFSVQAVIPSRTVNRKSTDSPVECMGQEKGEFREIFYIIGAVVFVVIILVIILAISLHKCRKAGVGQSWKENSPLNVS
Procedure: To determine whether a blood coagulation factor degrades hPEPD, hPEPD at 90 nM or lower concentrations (10 or 40 nM) was incubated with solvent, 100 nM FIIa, 100 nM FXa, 10 nM FVIIa with or without 10 nM TF, or 10 nM FVII with or without 10 nM TF and/or 100 nM FIIa in PBS in a total volume of 100 μl containing 5 mM CaCl2 for desired times at RT. […] To compare the hPEPD-degrading activities of different plasma samples, 9.2 pmol of hPEPD was incubated with 100 μl of plasma from WT mice or FVII^tTA/tTA mice at RT, with or without FIIa or FXa (10 pmol), and to maximize detection of any activity, all incubations lasted for 24 h. […] To measure remaining hPEPD, the incubated samples were cleared of potential fibrin clots by centrifugation and then analyzed by SDS-PAGE and silver staining (using the LC 6070 kit from Invitrogen), IB or measurement of hPEPD enzymatic activity. hPEPD enzymatic activity was measured using glycyl-proline as a substrate (as described in Zbucka et al., Folia Histochem Cytobiol 2007; 45 Suppl 1: S181-185). The precipitates from each incubated sample were washed with PBS twice and then resuspended in 2.5% SDS (20 μper sample); each solution was mixed with 10 μl loading dye and analyzed for hPEPD by IB, using pure hPEPD as a standard and factor FXIIIa as a binding control, respectively.
All samples after incubation were resolved by SDS-PAGE and stained by silver.
Each value is mean±SD (n=3).

[1] = tested on: plasma coagulation factors FXII, PK, HMWK, FXI, FIX, FX, FII, FI and FVII; assay: Changes in plasma coagulation factors in mice by IB (FI by ELISA); format: in vivo, mouse; details: 6 h after i.p. treatment
FX, FII or FVII = assay: Potential activation of FX, FII or FVII by hPEPD (IB); format: biochemical, human; details: hPEPD 40 nM, 5 mM CaCl2, RT, 24 h
Procedure: Measurement of Potential Activation of FX, FII or FVII by hPEPD. hPEPD (40 nM) was incubated with FX, FIT or FVII […] in PBS at RT in the presence of 5 mM CaCl2 for 24 h, followed by IB analysis for potential activation/cleavage of each coagulation factor. FXa, FIIa and FVIIa were used as positive controls in the experiments.

FXII = assay: Binding to coagulation factor FXII (IP and IB); parameters: species or system human; details: 40 nM (hAβ1-42 200 nM) with FXII in PBS, 2 h
Procedure: Binding reactions were carried out in PBS in a total volume of 100 μl for 2 h at 37° C. To assess binding of hPEPD to HMWK, PK, FXI, FXII or a FXII mutant, hPEPD at 40 nM was incubated with a potential binding partner at 0.5 μM. All FXII mutants are His tagged, while FXII is either 6XHis-tagged (generated in our own laboratory) or not His-tagged (purchased commercially), depending on the experiment. To compare hPEPD and its mutants for binding to FXII, hPEPD or a mutant (40 nM) was incubated with FXII at 0.5 μM. Likewise, to assess binding of mSRC to FXII and its mutants, mSRC (40 nM) was incubated with FXII or a mutant at 0.5 μM. At the end of the incubation, 300 μl PBS containing a specific primary antibody was added to the incubation solution, which was further incubated at 4° C. overnight, followed by IP by protein G-agarose, and the precipitates were analyzed by IB. […] The precipitates were re-dissolved in 30 μl of 2% SDS, which were analyzed along with the supernatants by IB.

degradation by FVIIa in the absence of TF (FVIIa; FVIIa 10 nM, no TF): degraded hPEPD
binding to FXII (FXII): binds only to FXII
B1: hPEPD: recombinant human prolidase (PEPD), 6xHis tagged to the carboxy terminus (protein, UniProt P12955 2-493, looked up)
Xaa-Pro dipeptidase: AAATGPSFWLGNETLKVPLALFALNRQRLCERLRKNPAVQAGSIVVLQGGEETQRYCTDTGVLFRQESFFHWAFGVTEPGCYGVIDVDTGKSTLFVPRLPASHATWMGKIHSKEHFKEKYAVDDVQYVDEIASVLTSQKPSVLLTLRGVNTDSGSVCREASFDGISKFEVNNTILHPEIVECRVFKTDMELEVLRYTNKISSEAHREVMKAVKVGMKEYELESLFEHYCYSRGGMRHSSYTCICGSGENSAVLHYGHAGAPNDRTIQNGDMCLFDMGGEYYCFASDITCSFPANGKFTADQKAVYEAVLRSSRAVMGAMKPGVWWPDMHRLADRIHLEELAHMGILSGSVDAMVQAHLGAVFMPHGLGHFLGIDVHDVGGYPEGVERIDEPGLRSLRTARHLQPGMVLTVEPGIYFIDHLLDEALADPARASFLNREVLQRFRGFGGVRIEEDVVVTDSGIELLTCVPRTVEEIEACMAGCDKAFTPFSGPK
modifications: C-terminal 6xHis tag
notes: recombinant human prolidase (PEPD), 6xHis tagged to the carboxy terminus
average plasma level of mSRC, increase (plasma mSRC): remained unchanged
proteolysis/fragmentation by FVIIa plus TF (FVIIa; FVIIa 10 nM plus TF 10 nM, CaCl2-containing PBS, RT): caused rapid and extensive hPEPD proteolysis
hPEPD remaining (enzymatic activity) (FVIIa; hPEPD 10 nM, FVIIa 10 nM plus TF 10 nM, RT): 35.9%
hPEPD remaining (enzymatic activity) (FVIIa; hPEPD 40 nM, FVIIa 10 nM plus TF 10 nM, RT): 46.3%
hPEPD remaining (enzymatic activity) (FVIIa; hPEPD 90 nM, FVIIa 10 nM plus TF 10 nM, RT): 52.4%
activation/cleavage of plasma coagulation factors ([1]; FXII−/− mice): no activation of HMWK, FXI, PK and FIX, but slight activation of FX, FII and FVII
activation/cleavage of plasma coagulation factors ([1]; WT mice): caused cleavage or activation of many coagulation factors
direct activation of FX, FII or FVII (FX, FII or FVII): does not directly activate any of these factors
